Reference: patent US20120039802A1 (published 2012)
Ends that are not written are not given here.

B1: 550-F11 peptide-displaying phage (SEQ ID NO: 089) (peptide)
peptide: AGQFYCSGPPTFQCIMIGT
modifications: not fully specified (bridges); cysteine pairing not given here
B2: 552-G09 peptide-displaying phage (SEQ ID NO: 096) (peptide)
peptide: AGEIFCVGPPTFTCMWTGT
B3: 549-F06 peptide-displaying phage (SEQ ID NO: 086) (peptide)
peptide: AGSTDCRGHPTFECWGWGT
B4: 331-D03 peptide-displaying phage (SEQ ID NO: 077) (peptide)
peptide: AGYWHCKGPPHFACEFHGT
B5: 330-G09 peptide-displaying phage (SEQ ID NO: 071) (peptide)
peptide: AGHWICVGPPTFSCQWHGT
B6: 548-C06 peptide-displaying phage (SEQ ID NO: 084) (peptide)
peptide: AGTMYCLGPPTFICQQYGT
B7: 550-G08 peptide-displaying phage (SEQ ID NO: 081) (peptide)
peptide: AGYFHCSGSPWFQCDYYGT
B8: 574-H03 peptide-displaying phage (SEQ ID NO: 008) (peptide)
peptide: GSSTICPGTACVDHAP
B9: 545-E04 peptide-displaying phage (SEQ ID NO: 093) (peptide)
peptide: AGETKCSGPPYFYCWMEGT
B10: 547-H12 peptide-displaying phage (SEQ ID NO: 088) (peptide)
peptide: AGSIACTGWPYFSCIDLGT
B11: 331-F01 peptide-displaying phage (SEQ ID NO: 072) (peptide)
peptide: AGEWWCHGPPEFLCYWTGT
B12: 567-C08 peptide-displaying phage (SEQ ID NO: 009) (peptide)
peptide: GSLIICWWSWCDKQAP
B13: 552-G11 peptide-displaying phage (SEQ ID NO: 080) (peptide)
peptide: AGYWDCKGPPHFFCEWHGT
B14: 336-D07 peptide-displaying phage (SEQ ID NO: 075) (peptide)
peptide: AGYSVCKGYPSFECAFFGT
B15: 545-E05 peptide-displaying phage (SEQ ID NO: 094) (peptide)
peptide: AGETFCVGNPSFECWSWGT
B16: 552-G03 peptide-displaying phage (SEQ ID NO: 079) (peptide)
peptide: AGYWSCAGPPMFMCTWQGT
B17: 561-C08 peptide-displaying phage (SEQ ID NO: 010) (peptide)
peptide: GSFNICPYQWCTLWAP
B18: 332-C03 peptide-displaying phage (SEQ ID NO: 076) (peptide)
peptide: AGVNSCLGPPTFECYQMGT
B19: 331-G06 peptide-displaying phage (SEQ ID NO: 078) (peptide)
peptide: AGNWICTGPPSFGCWYHGT
B20: 548-D08 peptide-displaying phage (SEQ ID NO: 090) (peptide)
peptide: AGPWKCTGPPTFSCIQFGT
B21: 552-A01 peptide-displaying phage (SEQ ID NO: 083) (peptide)
peptide: AGWSDCLGPPQFTCVHWGT
B22: 545-B12 peptide-displaying phage (SEQ ID NO: 085) (peptide)
peptide: AGSYWCSGPPTFMCRYEGT
B23: 552-F01 peptide-displaying phage (SEQ ID NO: 087) (peptide)
peptide: AGSSPCKGWPTFECYFYGT
B24: 335-D11 peptide-displaying phage (SEQ ID NO: 074) (peptide)
peptide: AGSIQCVGPPSFECTPYGT
B25: 547-H03 peptide-displaying phage (SEQ ID NO: 095) (peptide)
peptide: AGETFCSGWPTFECMQWGT
B26: 549-D02 peptide-displaying phage (SEQ ID NO: 091) (peptide)
peptide: AGNYWCSGPPSFICHAVGT
B27: 552-F02 peptide-displaying phage (SEQ ID NO: 092) (peptide)
peptide: AGMTLCAGPPTFECYEVGT

Columns and labels:
[1] = target: T1, cMet-Fc fusion protein (extracellular domain of the cMet receptor expressed as an Fc-fusion protein) (human, UniProt P08581 25-932); experiment: phage ELISA on cMet-Fc, competitor HGF 100 ng/mL
T1 construct: extracellular domain; also called soluble cMet-Fc-fusion protein; soluble cMet receptor; not shown: Fc part
T1 sequence (P08581 25-932): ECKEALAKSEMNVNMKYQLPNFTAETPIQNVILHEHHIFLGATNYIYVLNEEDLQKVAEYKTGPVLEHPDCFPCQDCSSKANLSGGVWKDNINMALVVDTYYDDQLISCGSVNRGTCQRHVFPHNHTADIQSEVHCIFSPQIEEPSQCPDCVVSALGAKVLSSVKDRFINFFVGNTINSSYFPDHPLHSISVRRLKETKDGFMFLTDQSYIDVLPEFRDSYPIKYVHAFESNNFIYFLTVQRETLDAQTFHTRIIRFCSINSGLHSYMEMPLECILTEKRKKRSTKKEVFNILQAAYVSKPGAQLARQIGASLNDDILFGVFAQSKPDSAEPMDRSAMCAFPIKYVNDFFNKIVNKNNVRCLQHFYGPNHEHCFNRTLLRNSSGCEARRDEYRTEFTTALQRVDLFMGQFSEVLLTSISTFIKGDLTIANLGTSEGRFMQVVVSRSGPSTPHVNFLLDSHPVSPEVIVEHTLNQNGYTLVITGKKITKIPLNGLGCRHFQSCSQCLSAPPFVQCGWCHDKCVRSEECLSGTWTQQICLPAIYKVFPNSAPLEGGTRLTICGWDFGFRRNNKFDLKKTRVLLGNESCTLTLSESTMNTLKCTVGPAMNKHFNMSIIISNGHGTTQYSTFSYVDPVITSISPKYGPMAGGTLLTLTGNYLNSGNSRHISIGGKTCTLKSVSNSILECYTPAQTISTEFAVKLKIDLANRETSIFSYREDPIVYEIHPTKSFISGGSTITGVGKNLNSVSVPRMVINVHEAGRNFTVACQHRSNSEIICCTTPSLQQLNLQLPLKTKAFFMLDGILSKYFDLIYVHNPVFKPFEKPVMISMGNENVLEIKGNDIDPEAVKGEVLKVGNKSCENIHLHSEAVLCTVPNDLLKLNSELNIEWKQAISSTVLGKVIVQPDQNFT
Experimental: (§1) These assays were conducted using the peptide-displaying phage discovered from the initial selection and screening campaigns using the first generation peptide libraries. Briefly, 96-well plates were coated overnight at 4 C with 0.5 μg/mL of cMet-Fc fusion protein or TRAIL-Fc fusion protein (background). The plates were blocked for 2 hours at 37 C with 3% BSA in PBST. […] This was followed by an addition of 30 μL of peptide-displaying phage overnight culture to each well. The plates were incubated for 2 hours at room temperature, washed with PBST and cMet-binding peptide-displaying phage was detected using an HRP-conjugated anti-M13 antibody.

[2] = target: T2, human cMet expressed on 3T3 cells (human, UniProt P08581 25-1390); experiment: whole cell phage ELISA, 3T3 human cMet vs 3T3
T2 construct: whole, on cells; cells fixed with glutaraldehyde; also called cell surface-expressed human cMet; 3T3 cells that over-express human cMet
T2 sequence (P08581 25-1390): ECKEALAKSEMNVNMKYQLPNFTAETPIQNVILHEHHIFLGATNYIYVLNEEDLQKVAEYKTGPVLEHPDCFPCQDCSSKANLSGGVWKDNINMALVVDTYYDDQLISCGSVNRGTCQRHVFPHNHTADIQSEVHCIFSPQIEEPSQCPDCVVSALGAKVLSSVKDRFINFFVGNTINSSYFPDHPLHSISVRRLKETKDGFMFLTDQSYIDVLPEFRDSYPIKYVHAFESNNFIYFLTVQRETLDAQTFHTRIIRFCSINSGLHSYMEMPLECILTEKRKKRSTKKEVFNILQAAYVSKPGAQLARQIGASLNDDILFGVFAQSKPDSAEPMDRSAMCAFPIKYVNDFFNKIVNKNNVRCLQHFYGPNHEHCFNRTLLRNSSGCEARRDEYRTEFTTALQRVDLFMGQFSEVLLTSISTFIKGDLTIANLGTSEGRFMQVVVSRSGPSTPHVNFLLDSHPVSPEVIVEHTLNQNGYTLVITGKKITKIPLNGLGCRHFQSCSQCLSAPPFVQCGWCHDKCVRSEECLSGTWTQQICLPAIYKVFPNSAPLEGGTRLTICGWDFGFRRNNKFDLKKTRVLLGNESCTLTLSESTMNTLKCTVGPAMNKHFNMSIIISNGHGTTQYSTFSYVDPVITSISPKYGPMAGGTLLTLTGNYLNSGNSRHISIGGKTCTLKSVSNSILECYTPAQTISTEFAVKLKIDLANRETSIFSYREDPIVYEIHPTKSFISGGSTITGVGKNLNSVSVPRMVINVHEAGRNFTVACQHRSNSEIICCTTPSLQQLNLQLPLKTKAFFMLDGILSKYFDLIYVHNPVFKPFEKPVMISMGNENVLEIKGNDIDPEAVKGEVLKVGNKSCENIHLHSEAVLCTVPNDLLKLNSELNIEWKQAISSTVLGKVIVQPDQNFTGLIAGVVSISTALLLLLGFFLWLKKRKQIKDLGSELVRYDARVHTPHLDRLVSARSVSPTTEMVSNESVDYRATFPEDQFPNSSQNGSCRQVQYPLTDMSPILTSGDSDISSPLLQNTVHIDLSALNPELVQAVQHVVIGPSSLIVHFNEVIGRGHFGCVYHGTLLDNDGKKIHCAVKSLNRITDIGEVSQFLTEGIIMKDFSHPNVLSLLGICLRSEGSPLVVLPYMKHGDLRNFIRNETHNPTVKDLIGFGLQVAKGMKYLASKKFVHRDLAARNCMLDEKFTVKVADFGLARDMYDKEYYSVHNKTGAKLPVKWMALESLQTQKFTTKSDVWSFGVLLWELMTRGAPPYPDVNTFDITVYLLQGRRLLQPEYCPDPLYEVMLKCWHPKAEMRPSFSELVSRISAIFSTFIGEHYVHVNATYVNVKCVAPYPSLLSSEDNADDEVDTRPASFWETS
Experimental: Whole cell ELISAs were performed using 3T3 cells that over-express human cMet. […] Briefly, 96-well plates were seeded with 10⁵ cells per well. The plates were centrifuged for 5 minutes at 1600 rpm to pellet the cells. The resulting cell layer was fixed with 0.1% (v/v) glutaraldehyde for 12 minutes at 37 C. […] Peptide-displaying phage also were blocked in the above solution for 1 hour at 37 C. 100 μL of blocked phage was then added to each well and the plates were incubated for 1 hour at room temperature. The plates were washed with PBST. cMet-binding peptide-displaying phage were detected using an HRP-conjugated anti-M13 antibody.

[3] = target: T1, cMet-Fc fusion protein (extracellular …); experiment: phage ELISA, cMet-Fc vs TRAIL-Fc
Experimental: Protein phage ELISAs using peptide-displaying phage isolates from the various selection campaigns were performed to determine specificity of the peptides for cMet versus an unrelated Fc-fusion protein (TRAIL-Fe). Briefly, 384-well plates were coated overnight at 4 C with 0.5 μg/mL of cMet-Fc fusion protein or TRAIL-Fc fusion protein (background). The plates were blocked for 2 hours 37 C with 3% (w/v) BSA in PBS containing 0.05% (v/v) Tween-20 (PBST). The plates were washed with PBST and 100 μL of peptide-displaying phage were added to each well. The plates were incubated for 2 hours at room temperature and washed with PBST. cMet-binding peptide-displaying phage were detected using an HRP-conjugated anti-M13 antibody.

[4] = target: T1, cMet-Fc fusion protein (extracellular …); experiment: phage ELISA on cMet-Fc, competitor HGF 500 ng/mL
Experimental: as §1

Binder	% of binding in the absence of HGF [1] [%]	WC ELISA (fold over background) [2] [fold]	Protein ELISA (fold over background) [3] [fold]	% of binding in the absence of HGF [4] [%]
B1	58	1.23	12.4	23
B2	98	1.27	9.7	68
B3	96	1.3	5.2	40
B4	64	1.4	5.5	55
B5	42	1.4	13.5	26
B6	94	1.23	13	77
B7	79	1.4	9.1	58
B8	88	1.27	3.2	18
B9	48	1.23	16.3	17
B10	92	1.1	5.6	81
B11	77	1.47	12.6	73
B12	85	1.27	3.8	94
B13	55	1.23	7.4	41
B14	44	1.33	5.8	37
B15	70	1.27	10.3	32
B16	101	1.27	10.7	83
B17	92	1.37	3	96
B18	37	1.2	5.7	95
B19	59	1.4	4.7	51
B20	97	1.23	19.5	62
B21	76	1.33	3.9	81
B22	51	1.27	17.1	42
B23	56	1.3	4.8	37
B24	56	1.37	6.7	37
B25	109	1.23	16.2	53
B26	47	1.27	8.9	36
B27	60	1.23	12.3	40
